Literature values, collected in publication PMC12224906.

Target: eIF5B CTD (Homo sapiens) (UniProt O60841)
UniProt O60841, sequence (O60841 1076-1220): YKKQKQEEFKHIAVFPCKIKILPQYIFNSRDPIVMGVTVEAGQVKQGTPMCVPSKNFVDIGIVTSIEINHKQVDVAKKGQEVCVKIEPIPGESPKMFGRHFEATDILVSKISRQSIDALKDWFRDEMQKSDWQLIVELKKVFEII

eIF5 CTT (from UniProt P55010)
Kd: 500 nM
